Patent publication US20120178668A1

Tests used:
Test in all cases: cell-based or functional assay
[1] = target: Natriuretic Peptide Receptor-A (NPR-A) of MDCK cells (canine (endogenous in MDCK cells))
[2] = target: rat GC-A (rat) (UniProt P18910)
[3] = target: NPR-A of HeLa cells (UniProt P16066)
[4] = target: T1, NPR-C (rat) (UniProt P41740)
T1 sequence: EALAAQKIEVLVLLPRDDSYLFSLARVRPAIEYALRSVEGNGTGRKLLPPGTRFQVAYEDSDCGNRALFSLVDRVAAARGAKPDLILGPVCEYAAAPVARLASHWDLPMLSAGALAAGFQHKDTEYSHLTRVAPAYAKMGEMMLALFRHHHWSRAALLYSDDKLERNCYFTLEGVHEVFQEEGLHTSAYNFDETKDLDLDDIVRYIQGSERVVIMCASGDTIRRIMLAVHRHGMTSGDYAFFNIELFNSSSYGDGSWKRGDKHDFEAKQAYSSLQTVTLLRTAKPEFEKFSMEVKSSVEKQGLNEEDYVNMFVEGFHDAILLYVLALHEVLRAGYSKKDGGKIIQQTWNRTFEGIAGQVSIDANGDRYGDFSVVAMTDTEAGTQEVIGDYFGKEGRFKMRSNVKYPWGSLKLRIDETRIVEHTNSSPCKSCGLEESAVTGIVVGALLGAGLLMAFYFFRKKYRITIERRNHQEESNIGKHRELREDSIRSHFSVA

Chain of rat GC-A (rat) (P18910 29-1057): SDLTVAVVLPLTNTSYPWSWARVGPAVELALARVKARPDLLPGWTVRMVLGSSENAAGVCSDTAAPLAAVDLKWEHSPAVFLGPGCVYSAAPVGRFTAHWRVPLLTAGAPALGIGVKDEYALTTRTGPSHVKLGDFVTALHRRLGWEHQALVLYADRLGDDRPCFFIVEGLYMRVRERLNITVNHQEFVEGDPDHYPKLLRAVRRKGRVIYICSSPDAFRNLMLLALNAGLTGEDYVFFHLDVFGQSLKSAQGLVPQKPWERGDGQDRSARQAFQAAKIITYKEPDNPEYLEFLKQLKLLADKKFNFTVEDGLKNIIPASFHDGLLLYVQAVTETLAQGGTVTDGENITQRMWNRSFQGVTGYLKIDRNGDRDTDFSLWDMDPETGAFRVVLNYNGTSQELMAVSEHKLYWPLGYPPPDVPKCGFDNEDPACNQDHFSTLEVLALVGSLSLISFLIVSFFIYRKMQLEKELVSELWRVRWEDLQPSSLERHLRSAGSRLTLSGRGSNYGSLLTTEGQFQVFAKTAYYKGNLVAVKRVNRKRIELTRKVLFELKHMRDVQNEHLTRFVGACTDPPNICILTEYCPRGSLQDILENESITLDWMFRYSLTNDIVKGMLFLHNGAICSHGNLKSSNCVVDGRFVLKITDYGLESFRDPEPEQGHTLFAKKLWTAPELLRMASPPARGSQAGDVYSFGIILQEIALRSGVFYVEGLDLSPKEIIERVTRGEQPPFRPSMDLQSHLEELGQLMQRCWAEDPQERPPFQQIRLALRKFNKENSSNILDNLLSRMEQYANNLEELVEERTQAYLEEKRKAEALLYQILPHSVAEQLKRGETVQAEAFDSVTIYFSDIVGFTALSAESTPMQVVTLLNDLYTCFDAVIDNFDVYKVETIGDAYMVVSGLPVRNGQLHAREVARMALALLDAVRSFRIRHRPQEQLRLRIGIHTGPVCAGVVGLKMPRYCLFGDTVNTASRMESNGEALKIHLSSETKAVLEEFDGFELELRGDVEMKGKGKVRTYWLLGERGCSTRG
Chain of NPR-A of HeLa cells (P16066 33-1061 limits assumed): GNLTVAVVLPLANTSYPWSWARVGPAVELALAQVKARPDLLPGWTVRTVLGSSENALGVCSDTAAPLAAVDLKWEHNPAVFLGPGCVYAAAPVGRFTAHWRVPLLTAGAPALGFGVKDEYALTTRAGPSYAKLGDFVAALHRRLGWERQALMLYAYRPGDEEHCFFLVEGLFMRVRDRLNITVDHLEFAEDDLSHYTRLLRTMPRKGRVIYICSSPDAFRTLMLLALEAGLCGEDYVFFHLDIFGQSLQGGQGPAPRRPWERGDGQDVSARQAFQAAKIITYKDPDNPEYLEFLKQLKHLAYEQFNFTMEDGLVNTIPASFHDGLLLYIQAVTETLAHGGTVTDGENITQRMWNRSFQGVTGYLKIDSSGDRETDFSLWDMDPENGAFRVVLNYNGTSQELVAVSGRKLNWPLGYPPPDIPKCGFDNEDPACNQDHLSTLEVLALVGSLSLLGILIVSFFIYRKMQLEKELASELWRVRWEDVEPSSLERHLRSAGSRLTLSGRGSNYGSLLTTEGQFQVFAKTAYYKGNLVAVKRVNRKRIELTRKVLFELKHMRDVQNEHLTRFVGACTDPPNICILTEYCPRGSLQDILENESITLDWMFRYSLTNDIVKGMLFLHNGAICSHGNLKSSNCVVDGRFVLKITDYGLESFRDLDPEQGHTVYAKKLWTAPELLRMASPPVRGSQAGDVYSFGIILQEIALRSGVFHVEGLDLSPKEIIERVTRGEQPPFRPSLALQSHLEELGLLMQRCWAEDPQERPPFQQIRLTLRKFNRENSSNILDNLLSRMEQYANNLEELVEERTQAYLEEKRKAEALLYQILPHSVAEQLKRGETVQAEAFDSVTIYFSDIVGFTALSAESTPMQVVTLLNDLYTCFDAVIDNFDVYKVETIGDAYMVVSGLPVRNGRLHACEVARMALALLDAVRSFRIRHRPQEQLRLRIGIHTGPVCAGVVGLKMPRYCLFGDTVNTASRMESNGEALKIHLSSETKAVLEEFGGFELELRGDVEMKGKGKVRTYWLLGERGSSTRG

## A7-TNPc (peptide)
[1]
  -Log10 EC50 (pEC50) of cGMP accumulation in MDCK cells: 6.87
  EC50 of cGMP accumulation in MDCK cells: 161 nM
[2]
  mean relaxation of denuded aortic rings, % of KCl response (% of KCl response): 32.9

## CHA10-TNPc (peptide)
[1]
  -Log10 EC50 (pEC50) of cGMP accumulation in MDCK cells: 7.84
  EC50 of cGMP accumulation in MDCK cells: 14.4 nM
[2]
  mean relaxation of denuded aortic rings, % of KCl response (% of KCl response): 64.2

## DNP (peptide)
[3]
  -Log10EC50 (pEC50) of cGMP accumulation in HeLa cells: 9.42
  EC50 of cGMP accumulation in HeLa cells: 392 pM
[1]
  -Log10 EC50 (pEC50) of cGMP accumulation in MDCK cells: 8.08
  EC50 of cGMP accumulation in MDCK cells: 1850 nM
[4]
  relaxation of KCl pre-contracted endothelium-intact rat aortic rings: 100%
[2]
  relaxation of KCl pre-contracted endothelium-denuded rat aortic rings: 100%

## K7-TNPc (peptide)
[1]
  -Log10 EC50 (pEC50) of cGMP accumulation in MDCK cells: 7.44
  EC50 of cGMP accumulation in MDCK cells: 52.8 nM
[2]
  mean relaxation of denuded aortic rings, % of KCl response (% of KCl response): 46.1
  relaxation of denuded aortic rings: 50%

## Lebetin 2 isoform α (peptide)
[1]
  -Log10 EC50 (pEC50) of cGMP accumulation in MDCK cells: 7.64
  EC50 of cGMP accumulation in MDCK cells: 26.8 nM

## N7D-TNPc (peptide)
[1]
  -Log10 EC50 (pEC50) of cGMP accumulation in MDCK cells: 7.58
  EC50 of cGMP accumulation in MDCK cells: 26.2 nM

## Nle29-TNPc (peptide)
[1]
  -Log10 EC50 (pEC50) of cGMP accumulation in MDCK cells: 6.5
  EC50 of cGMP accumulation in MDCK cells: 399 nM
[2]
  mean relaxation of denuded aortic rings, % of KCl response (% of KCl response): 61

## P28-TNPc (peptide)
[1]
  -Log10 EC50 (pEC50) of cGMP accumulation in MDCK cells: 6
  EC50 of cGMP accumulation in MDCK cells: 1190 nM
[2]
  mean relaxation of denuded aortic rings, % of KCl response (% of KCl response): 52.6

## PNP (peptide)
[1]
  -Log10 EC50 (pEC50) of cGMP accumulation in MDCK cells: 6.66
  EC50 of cGMP accumulation in MDCK cells: 347 nM
